Data set [1] addresses T1, E. coli thioredoxin/human IL-11 fusion protein with enterokinase cleavage spacer, P20809.
T1 chain: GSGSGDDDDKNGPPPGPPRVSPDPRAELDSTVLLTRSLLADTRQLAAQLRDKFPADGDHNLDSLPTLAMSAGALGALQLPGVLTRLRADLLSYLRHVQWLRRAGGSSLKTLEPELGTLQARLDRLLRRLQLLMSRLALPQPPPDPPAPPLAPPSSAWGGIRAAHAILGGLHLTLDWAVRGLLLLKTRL

Data set [2] has as its target T2, Gly-(Asp4)-Lys-βNA fluorogenic enterokinase substrate.
T2 chain: GDDDDK

In data set [3] the target is Trypsinogen.
For data set [4], the target named is bovine pancreatic trypsin inhibitor (BPTI, Sigma), P00974.
For data set [5], the target named is T3, soybean trypsin inhibitor (STI, Sigma), P01070.
T3 chain: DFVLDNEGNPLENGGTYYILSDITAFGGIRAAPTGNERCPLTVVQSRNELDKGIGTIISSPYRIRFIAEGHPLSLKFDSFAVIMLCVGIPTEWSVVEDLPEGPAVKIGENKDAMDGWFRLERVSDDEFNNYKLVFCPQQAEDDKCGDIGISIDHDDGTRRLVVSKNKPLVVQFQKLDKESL

B1: CHO-produced recombinant bovine enterokinase catalytic domain (light chain) (protein)
chain: IVGGSDSREGAWPWVVALYFDDQQVCGASLVSRDWLVSAAHCVYGRNMEPSKWKAVLGLHMASNLTSPQIETRLIDQIVINPHYNKRRKNNDIAMMHLEMKVNYTDYIQPICLPEENQVFPPGRICSIAGWGALIYQGSTADVLQEADVPLLSNEKCQQQMPEYNITENMVCAGYEAGGVDSCQGDSGGPLMCQENNRWLLAGVTSFGYQCALPNRPGVYARVPRFTEWIQSFLH
As to B1, the EFFICIENCY OF CLEAVAGE (relative molar activities) (relative molar activity) came to 25 in data set [1], 1 in data set [2] and 1 in data set [3]. Also, the “cleavage of fusion protein (SDS-PAGE)” value in data set [1] is “resulted in total and specific cleavage of this fusion protein into its two component domains (thioredoxin and IL-11)”. Besides, the “cleaving activity toward the fluorogenic enterokinase substrate Gly-(Asp4)-Lys-βNA” value in data set [4] was “This activity was inhibited by the addition of either soybean trypsin inhibitor (STI,Sigma) or bovine pancreatic trypsin inhibitor (BPTI, Sigma)”; in data set [5], “This activity was inhibited by the addition of either soybean trypsin inhibitor (STI,Sigma) or bovine pancreatic trypsin inhibitor (BPTI, Sigma)”.

For the origin of these results see patent publication US6746859.
